From the supplement of paper PMC11908140

B1: library; numbered along this chain (parent)
chain: MRKPRAAVGSGHRKQAASQEGRQKHAKNNSQAKPSACDGLARQPEEVVLQASVSSYHLFRDVAEVTAFRGSLLSWYDQEKRDLPWRRRAEDEMDLDRRAYAVWVSEVMLQQTQVATVINYYTGWMQKWPTLQDLASASLEEVNQLWAGLGYYSRGRRLQEGARKVVEELGGHMPRTAETLQQLLPGVGRYTAGAIASIAFGQATGVVDGNVARVLCRVRAIGADPSSTLVSQQLWGLAQQLVDPARPGDFNQAAMELGATVCTPQRPLCSQCPVESLCRARQRVEQEQLLASGSLSGSPDVEECAPNTGQCHLCLPPSEPWDQTLGVVNFPRKASRKPPREESSATCVLEQPGALGAQILLVQRPNSGLLAGLWEFPSVTWEPSEQLQRKALLQELQRWAGPLPATHLRHLGEVVHTFSHIKLTYQVYGLALEGQTPVTTVPPGARWLTQEEFHTAAVSTAMKKVFRVYQGQQPGTCMGSKRSQVSSPCSRKKPRMGQQVLDNFFRSHISTDAHSLNSAAQ

Variants of: B1
Experiment: 8OG:A repair function score (normalized; synonymous = 0, nonsense = -1) (normalized log-likelihood score); higher = more repair activity (WT-like)
Conditions: with 8OG:A DNA repair reporter (GFP) in HEK-293 MUTYH KO cells
Protocol: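 Saturation mutagenesis (NNN codon scan) of the MUTYH cDNA (521-aa nuclear isoform NM_001048174.1 / NP_001041639), stably expressed under doxycycline induction in HEK-293 MUTYH knockout cells. Cells were co-transfected with an 8OG:A-bearing GFP repair reporter plus mCherry and sorted 72 h later into GFP+ and GFP− bins, three replicates per tile. The Rosace log2 enrichment (GFP+ vs GFP−) was converted per tile to a normalized function score with synonymous variants centered at 0 and nonsense variants (codons 1-471) at -1; low-abundance variants were removed.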

8OG:A repair function score, by site and new letter:
R60: V 0.00595
F59: A -0.359; R -0.753; D -0.583; L -0.095; M -0.121; V -0.24; P -0.371; Y -0.161; S -0.561; K -1.43; W -0.25; G -0.925; H -0.439; C -0.367; N -0.954; I -0.137; T -0.579; E -0.768; Q -0.967
S55: P -0.274; R -0.0153; Q 0.00445; Y 0.000496; E -0.00704; F -0.000223; T 0.00523; H -0.00673; L -0.149; I -0.0166; G 0.00135; W -0.0142; V 0.00566; N 0.00188; D 0.00222; K 0.000876; C -0.043; A 0.00283; M -0.0231
A63: V -0.0122; Q -0.105; I -0.0351; T 0.00284; F -0.142; E -0.00911; M -0.0357; R 0.00494; P -0.0204; W -0.00488; L -0.00968; S 0.00279; K -0.00172; N -0.101; C -0.0141; D 0.00576; Y -0.056; G -0.0575; H -0.0822
D61: W -0.127; P -0.00103; G 0.00587; M -0.00523; Y -0.0853; Q -0.0778; T 0.00691; R -0.037; N -0.0108; H -0.208; K 0.00675; A -0.0921; I -0.0219; V -0.137; S -0.013; L 0.00218; F -0.794; E -0.0493; C -0.0189
Y56: P -0.0566; F 0.0047; K -0.0455; G -0.0482; E -0.0123; L 0.00637; Q -0.0234; A -0.0245; C -0.0129; M 0.00205; I -0.000994; N -0.0497; W 0.00662; S -0.0461; D -0.0985; H -0.00595; T -0.011; V -0.015; R -0.0483
R69: M -3.11; D -1.4; Q -0.519; L -1.24; E -3.19; I -3.35; F -1.53; A -1.46; H -1.89; N -1.56; C -0.33; P -1.42; G -0.281; K -0.298
L58: I -0.00475; P -0.622; M -0.0211; T -0.0284; F 0.00426; E 0.0056; Y -0.0187; N 0.00327; R 0.00693; K -0.021; G 0.00575; D -0.00786; H 0.00605; S -0.0155; A 0.00209; C -0.0122; W 0.00529; V -0.00997; Q -0.00261
F68: H -1.1; Q -0.906; E -1.5; A -0.234; I -0.126; G -1.41; T -0.393; V -0.0136; C -0.545; D -1.87; S -1.34; L -0.141; K -0.962; N -1.12; W -0.369; M -0.0967; Y -0.0444; R -1.29; P -1.6
H57: S -0.711; T -0.765; N -0.729; A -0.797; F -0.751; L -0.734; D -0.824; M -1.63; I -0.613; V -0.613; E -0.74; Y -0.569; P -0.793; Q -0.657; K -0.664; G -0.607; R -0.473; W -1.09; C -0.642
